Data taken from patent US20050142568A1 (published 2005).

T1: GST-NUC-1 (C. elegans, UniProt Q17778 22-375)
T1 construct: also called NUC-1 GST-fusion protein; not shown: glutathione S-transferase tag encoded by vector pGEX4T-2
T1 sequence (looked up): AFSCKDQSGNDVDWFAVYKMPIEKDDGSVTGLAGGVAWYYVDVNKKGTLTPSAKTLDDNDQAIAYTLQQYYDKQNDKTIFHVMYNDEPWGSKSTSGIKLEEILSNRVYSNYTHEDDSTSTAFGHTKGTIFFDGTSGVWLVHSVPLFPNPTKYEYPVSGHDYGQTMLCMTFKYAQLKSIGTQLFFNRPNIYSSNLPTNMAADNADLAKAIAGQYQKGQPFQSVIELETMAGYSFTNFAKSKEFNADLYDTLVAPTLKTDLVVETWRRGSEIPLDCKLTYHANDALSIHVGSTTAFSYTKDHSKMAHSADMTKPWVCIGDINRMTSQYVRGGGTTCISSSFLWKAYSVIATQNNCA

T2: GST-CRN-3 (C. elegans, UniProt G5EBX6 1-876)
T2 construct: also called CRN-3 GST-fusion protein; not shown: glutathione S-transferase tag encoded by vector pGEX4T-2
T2 sequence: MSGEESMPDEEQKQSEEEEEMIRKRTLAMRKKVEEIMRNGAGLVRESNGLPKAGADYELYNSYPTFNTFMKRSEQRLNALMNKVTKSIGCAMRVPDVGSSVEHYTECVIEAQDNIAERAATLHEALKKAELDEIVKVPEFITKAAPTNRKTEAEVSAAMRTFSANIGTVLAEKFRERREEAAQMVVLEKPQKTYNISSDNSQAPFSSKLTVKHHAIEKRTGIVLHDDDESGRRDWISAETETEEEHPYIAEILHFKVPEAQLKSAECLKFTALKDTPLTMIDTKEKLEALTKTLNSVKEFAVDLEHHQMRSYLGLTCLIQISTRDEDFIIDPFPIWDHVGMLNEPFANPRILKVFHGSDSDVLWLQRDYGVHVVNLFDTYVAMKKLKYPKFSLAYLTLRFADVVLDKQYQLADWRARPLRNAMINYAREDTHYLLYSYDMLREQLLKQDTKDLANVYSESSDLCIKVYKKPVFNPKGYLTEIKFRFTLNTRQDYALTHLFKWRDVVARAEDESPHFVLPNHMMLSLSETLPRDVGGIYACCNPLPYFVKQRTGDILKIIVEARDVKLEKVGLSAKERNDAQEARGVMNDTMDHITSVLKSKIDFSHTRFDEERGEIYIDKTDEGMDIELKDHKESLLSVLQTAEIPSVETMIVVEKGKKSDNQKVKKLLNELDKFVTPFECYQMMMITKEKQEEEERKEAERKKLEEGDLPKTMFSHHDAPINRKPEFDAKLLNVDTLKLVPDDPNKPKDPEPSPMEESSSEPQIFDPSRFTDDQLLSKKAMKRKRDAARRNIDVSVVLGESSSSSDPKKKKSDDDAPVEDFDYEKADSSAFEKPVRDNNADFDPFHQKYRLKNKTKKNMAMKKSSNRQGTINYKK

T3: ^35S-Methionine labeled CRN-6 (C. elegans, UniProt P34508-2 18-373, limits assumed, 35S-methionine labelled)
T3 sequence (looked up): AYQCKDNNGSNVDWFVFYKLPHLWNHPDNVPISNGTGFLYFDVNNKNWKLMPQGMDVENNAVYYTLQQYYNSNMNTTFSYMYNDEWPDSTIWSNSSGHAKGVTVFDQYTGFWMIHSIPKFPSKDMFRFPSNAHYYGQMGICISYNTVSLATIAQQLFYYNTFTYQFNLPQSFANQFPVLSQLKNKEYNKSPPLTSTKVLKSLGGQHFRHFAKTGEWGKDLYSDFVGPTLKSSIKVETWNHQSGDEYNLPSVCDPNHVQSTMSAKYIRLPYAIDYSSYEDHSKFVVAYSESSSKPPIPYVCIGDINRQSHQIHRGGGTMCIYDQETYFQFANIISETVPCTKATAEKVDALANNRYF

T4: ^35S-Methionine labeled CRN-3 (C. elegans, UniProt G5EBX6 1-876)
T4 sequence: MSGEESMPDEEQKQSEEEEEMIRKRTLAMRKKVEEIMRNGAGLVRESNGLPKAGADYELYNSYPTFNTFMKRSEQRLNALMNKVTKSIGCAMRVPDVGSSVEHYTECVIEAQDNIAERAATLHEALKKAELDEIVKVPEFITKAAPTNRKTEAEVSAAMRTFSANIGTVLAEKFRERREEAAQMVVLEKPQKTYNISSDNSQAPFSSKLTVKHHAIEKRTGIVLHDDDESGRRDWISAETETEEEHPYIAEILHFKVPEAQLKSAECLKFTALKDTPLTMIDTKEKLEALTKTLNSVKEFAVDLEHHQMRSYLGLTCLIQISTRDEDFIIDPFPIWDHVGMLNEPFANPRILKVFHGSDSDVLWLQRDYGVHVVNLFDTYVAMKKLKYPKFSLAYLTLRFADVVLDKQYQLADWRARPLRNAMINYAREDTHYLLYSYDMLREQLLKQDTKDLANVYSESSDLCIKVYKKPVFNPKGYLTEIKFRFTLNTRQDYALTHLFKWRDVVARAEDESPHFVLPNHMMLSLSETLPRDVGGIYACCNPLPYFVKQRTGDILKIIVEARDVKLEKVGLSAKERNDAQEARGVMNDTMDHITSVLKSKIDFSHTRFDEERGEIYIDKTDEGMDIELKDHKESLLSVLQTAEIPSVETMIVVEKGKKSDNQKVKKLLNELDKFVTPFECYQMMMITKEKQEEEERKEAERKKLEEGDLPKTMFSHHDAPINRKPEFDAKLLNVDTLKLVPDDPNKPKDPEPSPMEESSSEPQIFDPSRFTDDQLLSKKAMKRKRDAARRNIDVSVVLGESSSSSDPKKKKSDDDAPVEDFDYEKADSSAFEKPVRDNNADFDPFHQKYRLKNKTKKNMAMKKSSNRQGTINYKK

T5: ^35S-Methionine labeled NUC-1 (C. elegans, UniProt Q17778 22-375, 35S-methionine labelled)
T5 sequence (looked up): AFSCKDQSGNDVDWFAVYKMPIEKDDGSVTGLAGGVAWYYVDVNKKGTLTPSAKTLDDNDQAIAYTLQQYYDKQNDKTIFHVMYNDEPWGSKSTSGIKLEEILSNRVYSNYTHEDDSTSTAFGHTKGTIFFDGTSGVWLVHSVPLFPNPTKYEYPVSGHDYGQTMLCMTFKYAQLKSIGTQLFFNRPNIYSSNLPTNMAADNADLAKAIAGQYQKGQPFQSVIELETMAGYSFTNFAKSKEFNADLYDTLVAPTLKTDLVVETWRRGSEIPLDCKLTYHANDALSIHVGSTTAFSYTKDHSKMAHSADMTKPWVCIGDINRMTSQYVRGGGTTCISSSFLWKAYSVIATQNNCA

B1: GST-CPS-6 (other, C. elegans, UniProt Q95NM6 1-308, looked up)
chain: MIGKVAGTAAIAGISFLAGKYSNDDLPIFRNVQSATNVPMNQIQVSEPMTVKPASLNADAMGPSRSAEIMKHGYPGFTNVRTYEDFVLSYDYKTRTAHWVCEHLTPERLKHAEGVDRKLCEFKPDITFPQKFLSQNTDYKCSGFDRGHLAAAGNHRKSQLAVDQTFYLSNMSPQVGRGFNRDKWNDLEMHCRRVAKKMINSYIITGPLYLPKLEGDGKKYIKYQVIGDNNVAVPTHFFKVALFEVTPGKFELESYILPNAVIEDTVEISKFHVPLDAVERSAGLEIFARLDPKSIVKENGAKKGGLLW
notes: GST at the N-terminus as in pGEX vectors; also called CPS-6 GST-fusion protein; not shown: glutathione S-transferase tag encoded by vector pGEX4T-2

Columns and labels:
Assay in all cases: GST pull-down, 35S-Met protein vs GST fusion; - means no detectable binding (footnote a)
[1] = biological target: T6, GST-CRN-6 (C. elegans, UniProt P08515 1-218 = GST; P34508 1-373)
T6 construct: Two crn-6 cDNAs (700 bp and 1.1 kb) were isolated; the longer one made the GST fusion; also called CRN-6 GST-fusion protein
Protocol: (§1) GST fusion protein pull-down assays were performed as described in J. Parrish, H. Metters, L. Chen, D. Xue, Proc. Natl. Acad. Sci. U.S.A. 97, 11916 (2000). Purified GST or GST-fusion proteins (5 μg each) immobilized on glutathione sepharose beads were incubated with ³⁵S-Methionine labeled proteins at 4° C. for 2 hours. The beads were washed extensively and the bound proteins were resolved on a 12% SDS-PAGE and visualized by autoradiography. [0103] cDNAs corresponding to the ORFs were cloned into the pPD129.36 vector via its Nhe I and Xho I sites or the Xho I site alone. Full-length cDNAs were subcloned into the pGEX4T-2 vector for generating GST fusion proteins and for further protein purification and into the pcDNA3.1 vector for in vitro transcription/translation experiments.
(§2) ^aInteractions were evaluated relative to background binding of ³⁵S-Methionine labeled Luciferase to GST-fusion proteins and ³⁵S-Methionine labeled proteins to GST. “−” indicates no detectable binding, “+” indicates an interaction consistently observed above background levels, and “++” indicates a strong interaction. ^bBecause ³⁵S-Methionine labeled CRN-1 binds GST tightly, it was not possible to evaluate interactions between ³⁵S-CRN-1 and various GST-fusion proteins. ND, not determined.

[2] = biological target: B1
Protocol: as §1, §2

[3] = biological target: T1, GST-NUC-1
Protocol: as §1, §2

[4] = biological target: T2, GST-CRN-3
Protocol: as §1, §2

[5] = biological target: T3, ^35S-Methionine labeled CRN-6
Protocol: as §1, §2

[6] = biological target: T4, ^35S-Methionine labeled CRN-3
Protocol: as §1, §2

[7] = biological target: T5, ^35S-Methionine labeled NUC-1
Protocol: as §1, §2

| binding result [1] | binding result [2] | binding result [3] | binding result [4] | binding result [5] | binding result [6] | binding result [7] | Binder |
| --- | --- | --- | --- | --- | --- | --- | --- |
| no binding | no binding | no binding | no binding | – | – | – | full-length ^35S-methionine labeled CPS-6 (enzyme, C. elegans, UniProt Q95NM6 1-308, looked up, 35S-methionine labelled, also called ^35S-CPS-6) MIGKVAGTAAIAGISFLAGKYSNDDLPIFRNVQSATNVPMNQIQVSEPMTVKPASLNADAMGPSRSAEIMKHGYPGFTNVRTYEDFVLSYDYKTRTAHWVCEHLTPERLKHAEGVDRKLCEFKPDITFPQKFLSQNTDYKCSGFDRGHLAAAGNHRKSQLAVDQTFYLSNMSPQVGRGFNRDKWNDLEMHCRRVAKKMINSYIITGPLYLPKLEGDGKKYIKYQVIGDNNVAVPTHFFKVALFEVTPGKFELESYILPNAVIEDTVEISKFHVPLDAVERSAGLEIFARLDPKSIVKENGAKKGGLLW |
| – | – | – | – | no binding | no binding | no binding | B1 |
| – | – | – | – | no binding | no binding | – | GST-CRN-4 (other, C. elegans, UniProt Q10905 1-298, looked up, also called CRN-4 GST-fusion protein; not shown: glutathione S-transferase tag encoded by vector pGEX4T-2) MAYQHCPFDTLLILDFETTSDAANQDYPCEVIQFAIVAYDVPNDKIREDISFNKYVKPVLNRTLTKNCVDFTGIPQRSIDTADTFDVVYEQFQQWLITLGLEEGKFAFVCDSRQDLWRIAQYQMKLSNIQMPAFFRQYINLYKIFTNEMDRMGPKELSATTNIGKMNEYYDLPTIGRAHDAMDDCLNIATILQRMINMGAKVTVNELLTCCASWRRQPLVYNKEWRSSFMDAGKIFERVLPLVVTTIRAGDFRLEMYGVCRYCRKGMDVCGTSHQQTPHDLYKNEEDPIHFAKIAGYY |
